From publication PMC9606263, “Polerovirus N-terminal readthrough domain structures reveal molecular strategies for mitigating virus transmission by aphids” (Nature Communications, 2022)

What was measured:
[1] = biological target: N-terminal portion of the readthrough domain of turnip yellows virus (TuYV NRTD; residues 224-459) (turnip yellows virus); experiment: SEC-MALS; loaded at 4 mg/mL on Superdex 200 10/300 Increase; 20 mM HEPES pH 7.5, 150 mM KCl, 1 mM DTT; 0.5 ml/min
[2] = biological target: the molecule itself; experiment: as above

Row | Molecule | stoichiometry N [1] | stoichiometry N [2]
1 | N-terminal portion of the readthrough domain of turnip yellows virus (TuYV NRTD; residues 224-459) (from UniProt P09516 224-459) (domain or fragment) | 2 | –
2 | N-terminal portion of the potato leafroll virus readthrough domain (PLRV NRTD; residues 230-458), native (domain or fragment, Readthrough protein (RTP, CP-RTD fusion) of potato leafroll virus, N-terminal portion of the readthrough domain, residues 230-458 of the complete RTP fusion; 6xHis-NusA removed with HRV3C protease; also called WT PLRV ^NRTD; source: E. coli BL21(DE3), purified (nickel column, HiTrap Q, SEC); not shown: 6xHis, N-terminal, cleaved; NusA, N-terminal, cleaved) HERFIAYVGIPMLTIQARENDDQIILGSLGSQRMKYIEDENQNYTKFSSEYYSQSSMQAVPMYYFNVPKGQWSVDISCEGYQPTSSTSDPNRGRSDGMIAYSNADSDYWNVGEADGVKISKLRNDNTYRQGHPELEINSCHFREGQLLERDATISFHVEAPTDGRFFLVGPAIQKTAKYNYTISYGDWTDRDMELGLITVVLDEHLEGTGSANRVRRPPREGHTYMASP | – | 2
